For assay [1], the target named is Flag-tagged EspM2 (EHEC O157:H7 Sakai).
The target is the same in assay [2]. This is another data set of the same source.

Consider GST-EspO1-2 W77A (natural protein), for which the percent of HeLa cells with stress fibers when transfected with EspM2 and EspO1-2 W77A expression vectors (38% with the EspM2 vector only) (% of transfected cells) in assay [1] amounted to 20. In assay [1], GST-EspO1-2 W77H (natural protein) showed a percent of HeLa cells with stress fibers when transfected with EspM2 and EspO1-2 W77H expression vectors (38% with the EspM2 vector only) (% of transfected cells) of 20. In assay [2], “glutathione-S-transferase (GST)-tagged EspO1-2 (natural protein)” gave a percent of HeLa cells with stress fibers when transfected with both EspM2 and EspO1-2 expression vectors (38% with the EspM2 vector only), 72 h post-transfection (% of transfected cells) of 10.

The values above are taken from article PMC3568036.
